Target: Kv7.2 wt (wild-type Kv7.2 channel subunit), tagged with EGFP or with mKate2 (human, UniProt O43526-1 1-872)
Assay: FRET or BRET

B1: Kv7.2mut-EGFP (Kv7.2 with in-frame deletion of histidine 260) (natural protein)
chain: MVQKSRNGGVYPGPSGEKKLKVGFVGLDPGAPDSTRDGALLIAGSEAPKRGSILSKPRAGGAGAGKPPKRNAFYRKLQNFLYNVLERPRGWAFIYHAYVFLLVFSCLVLSVFSTIKEYEKSSEGALYILEIVTIVVFGVEYFVRIWAAGCCCRYRGWRGRLKFARKPFCVIDIMVLIASIAVLAAGSQGNVFATSALRSLRFLQILRMIRMDRRGGTWKLLGSVVYAHSKELVTAWYIGFLCLILASFLVYLAEKGENDFDTYADALWWGLITLTTIGYGDKYPQTWNGRLLAATFTLIGVSFFALPAGILGSGFALKVQEQHRQKHFEKRRNPAAGLIQSAWRFYATNLSRTDLHSTWQYYERTVTVPMYSSQTQTYGASRLIPPLNQLELLRNLKSKSGLAFRKDPPPEPSPSKGSPCRGPLCGCCPGRSSQKVSLKDRVFSSPRGVAAKGKGSPQAQTVRRSPSADQSLEDSPSKVPKSWSFGDRSRARQAFRIKGAASRQNSEEASLPGEDIVDDKSCPCEFVTEDLTPGLKVSIRAVCVMRFLVSKRKFKESLRPYDVMDVIEQYSAGHLDMLSRIKSLQSRVDQIVGRGPAITDKDRTKGPAEAELPEDPSMMGRLGKVEKQVLSMEKKLDFLVNIYMQRMGIPPTETEAYFGAKEPEPAPPYHSPEDSREHVDRHGCIVKIVRSSSSTGQKNFSAPPAAPPVQCPPSTSWQPQSHPRQGHGTSPVGDHGSLVRIPPPPAHERSLSAYGGGNRASMEFLRQEDTPGCRPPEGNLRDSDTSISIPSVDHEELERSFSGFSISQSKENLDALNSCYAAVAPCAKVRPYIAEGESDTDSDLCTPCGPPPRSATGEGPFGDVGWAGPRK
With B1 as the binder, how does the “increase of EGFP intensity after photobleaching mKate2 (FRET)” value read?
The value was 12.1%.

Source: PMC9490039 (iScience, 2022)
